From article PMC3729709

Target: recombinant soluble trimeric gp140 from the clade A Ugandan HIV-1 field isolate 94UG018 (HIV-1 clade A isolate 94UG018)
Assay: SEC; final gel filtration on an SD200 column equilibrated with PBS; fractions corresponding to the gp140 trimer collected and pooled

recombinant soluble trimeric gp140 from the clade A Ugandan HIV-1 field isolate 94UG018 (natural protein)
stoichiometry N: 3
